# Results published in the DeepSol protein solubility set.
# Assay: soluble on expression in E. coli; label from the status in PepcDB or PDB records
row,Sequence,soluble on expression in E. coli
1,MSELRKLELERKKQKLAELKSQRKREEDARVQNLLRSTNENGTTQNGTSRQTLSSNEVEDILRQVGISTEPTVREESPAPPPGSHSDNHVDPSASHPRISNLLSVDLEFSSVQTACTDNKDSAIYSKGTQTDDERISVGEFSLGSQEFDYDDDMIMPMDHGQFRGRAHSHDQDSPLPYNEEIAKLLGQTKQGDKGLTRQETEEKKTQTVQIVPPLSDEEKYRLTLDPEFLDSFNRSCKVISRALNEEIDICINYTKDPYEKAIASDDLLHLAQVYQDETWTAKRLVTGMAFSEHYPDLLAVSYGPCDIPNEPPGVIVVWNTKSKRMTAEFIVYCQSEIQSVAFARFHAHLLLAGCESGQICVWDNRLTSRKLPINRSPLTTQAHTYTVSCLAVVGTKNAHNFVSLSRDGRICSWNVDNLTQPVDGKELMTKEGKAASATRMSFPIGEMQTFVVGTDTGEILAASRNGADPAVIKTDVCYKGHSGTLTGIEFHRASGVVDFSHLFISSSHDWTVKLWSTKDANLKFSFESHPDLVLDVAWSPVHPAVFASIDADGNIFVWNLNEDVEGPVARLRAGAEGESVYMNRLIWSPDGKHVFVGDDEGRVHMYDVRESLYVLKSEEWNRFARVLSDMKQSNEEAENYNM,not soluble
2,MSYKFGKLAINKSELCLANVLQAGQSFRWIWDEKLNQYSTTMKIGQQEKYSVVILRQDEENEILEFVAVGDCGNQDALKTHLMKYFRLDVSLKHLFDNVWIPSDKAFAKLSPQGIRILAQEPWETLISFICSSNNNISRITRMCNSLCSNFGNLITTIDGVAYHSFPTSEELTSRATEAKLRELGFGYRAKYIIETARKLVNDKAEANITSDTTYLQSICKDAQYEDVREHLMSYNGVGPKVADCVCLMGLHMDGIVPVDVHVSRIAKRDYQISANKNHLKELRTKYNALPISRKKINLELDHIRLMLFKKWGSYAGWAQGVLFSKEIGGTSGSTTTGTIKKRKWDMIKETEAIVTKQMKLKVELSDLHIKEAKID,soluble
3,AADITVASYNIHKGVGTDRRRDLRRTAAVIAELDADLVALQEADRRFGDRAGLLDLEHLKDETGLVPVKVEGRGRAHGWHGNLLLVRDAEVEEVQKIVLPSFEPRGALMIDMMIRGRPLRVIAAHLGLLPASRAAQTRHLLERIEASTPRPTLLMGDLNEWRGTGAAMGHLARHFTGGVMVRSFPSRFPILALDRLMTCKHGQLHDVSTHDTPLARRASDHLPIKARLHLP,not soluble
4,GVDGCGSVTLAYDGFNVNLLHSKVSDSLIPSEFQGEQGSVLVDMIATGRGVERILRGEEKETLTLPQTENHMFYEAEAFAKQLKLGVIDEQMKQRSLTVAKVLTEVRKQTGVVFPADQ,not soluble
5,MAHHHHHHMLRRVPLRLARRKHGQTAWSPNNTSSGAAPTNGITAQEALQIAYRPMPPANTVEYEEDFGPNMMIHREFVSSRHRTRMASDISALAYSDVELARARQQLAGVMNRERRGALVGSGGEAGDRVLFNSDVDETTREVKSARFLFNEQRMRFCDRFQTFFRERIERWAAGDAGAGEDDHPYFSLMEACAVLHGCDTVDAREVYYRRFLGLDLDTLEAEEAALRARAADAAEVGARLTRGEAGAGGGALVAAAAGGAGGAGSATDVVQDIIDALPPLFPQPAAAEVGEASEAVADAPPARARAAGAGELPPATAAAPAHLAEDAAPLYKAYLAHARGESPVGSYDVTTLGAHAAHAERRRWRSLMDKIAAEDYHELTAAELEDAHVLNGQLHTVKFFDLKVGDTVREIVQLLERETGSSASGDRDVPVEMSPTHPERRV,not soluble
6,MNLSFKIFDISNTQRSKAKKVQGKKYEIFLNENEHSLITPKVSFKEILRYYYLYPKNAIPSFKLPFFKPDLSGFSTPHITWLGHSSLFISFKEYKILIDPIFNTHASPISFINKAFKNAPVYNINDFNEIFAVIITHSHFDHLDAKSVKALKDKAKFFITPLKVGNYLKSYGVSEKKIIELDWWSGIEFGDLKIMATPAQHSSSRGDGKNKTLWASFVMEFLSVDKRVFFSADGGYFTHFKKIGEYFGSFDLACLESGQFNIAWPYSHSFPEQILKEAKDLNAKAVMPIHWGRFLAGTHAWNEVVKFLYENLDLPLITPKMGEAYEVGAKFKQDFWWKEELEHHHHHH,not soluble
7,GPHMPEQYRYTLPVKAGEQRLLGELTGAACATLVAEIAERHAGPVVLIAPDMQNALRLHDEISQFTDQMVMNLADWETLPYDSFSPHQDIISSRLSTLYQLPTMQRGVLIVPVNTLMQRVCPHSFLHGHALVMKKGQRLSRDALRTQLDSAGYRHVDQVMEHGEYATRGALLDLFPMGSELPYRLDFFDDEIDSLRVFDVDSQRTLEEVEAINLLPAHEFPTDKAAIELFRSQWRDTFEVKRDPEHIYQQVSKGTLPAGIEYWQPLFFSEPLPPLFSYFPANTLLVNTGDLETSAERFQADTLARFENRGVDPMRPLLPPQSLWLRVDELFSELKNWPRVQLKTEHLPTKAANANLGFQKLPDLAVQAQQKAPLDALRKFLETFDGPVVFSVESEGRREALGELLARIKIAPQRIMRLDEASDRGRYLMIGAAEHGFVDTVRNLALICESDLLGERVARRRQDSRRTINPDTLIRNLAELHIGQPVVHLEHGVGRYAGMTTLEAGGITGEYLMLTYANDAKLYVPVSSLHLISRYAGGAEENAPLHKLGGDAWSRARQKAAEKVRDVAAELLDIYAQRAAKEGFAFKHDREQYQLFCDSFPFETTPDQAQAINAVLSDMCQPLAMDRLVCGDVGFGKTEVAMRAAFLAVDNHKQVAVLVPTTLLAQQHYDNFRDRFANWPVRIEMISRFRSAKEQTQILAEVAEGKIDILIGTHKLLQSDVKFKDLGLLIVDEEHRFGVRHKERIKAMRANVDILTLTATPIPRTLNMAMSGMRDLSIIATPPARRLAVKTFVREYDSMVVREAILREILRGGQVYYLYNDVENIQKAAERLAELVPEARIAIGHGQMRERELERVMNDFHHQRFNVLVCTTIIETGIDIPTANTIIIERADHFGLAQLHQLRGRVGRSHHQAYAWLLTPHPKAMTTDAQKRLEAIASLEDLGAGFALATHDLEIRGAGELLGEEQSGSMETIGFSLYMELLENAVDALKAGREPSLEDLTSQQTEVELRMPSLLPDDFIPDVNTRLSFYKRIASAKTENELEEIKVELIDRFGLLPDPARTLLDIARLRQQAQKLGIRKLEGNEKGGVIEFAEKNHVNPAWLIGLLQKQPQHYRLDGPTRLKFIQDLSERKTRIEWVRQFMRELEENAIA,soluble
8,MGSDKIHHHHHHVAAESKTIAIALNNDFINNLDLSPASTVIEQLLRDGAASHEQQLRFDINYDLEPGDPRELSEIPEIRLWFVRLDAKYPWLAFLLDWKAGEFARYAAMLVPHQFSSQDGIQYNPEALEIFLMHKIFILGDWLKQQDIPSLSRLKSMAQMLGYELDDAFFEIF,not soluble
9,MRYFALTDLTKPTAKFTTDAMELRQISNAYLNQAQAYLQKGLKQLKKDYKNAILYTPKTEYKRFLKWKQTFLQDLNQTQKRFFIVRAQHFSYVLLFNLLDEQVEAVIATFNNFLDEHRLEAQSKQFDLDTAVNELHDYFDQLQKNTAYSEDLPTHLTQKTEQLINARNTQLTNLLNKIATTKPPLNKQQRLLASFRNYHEHLFLKNEVKKVTWLNEPRAKKESVTPDEEH,soluble
10,SLKINQEEDTVSSEKNKLCDNNNNNNMVHTRHIYNVCELNKCLRENKLIPYNNIYKMKHLYLNILDTFDENILKHVNKAHLFIDSVIQKKKNILIHCMAGISRCSSIILSYVSKKNKKGIEYNFNLLKSKYPFAHPNENFYRQLLLYEKMNYTLDGCTDYHNIYK,soluble
11,MSKLYFRYGAMNSGKSTHLMQVAHNYEERGMEVIIIKPSTDKKGGDKVVSRLGVERVVDILIDNDENIIETIEDRLEKGRKIDCIIVDEVQFLKAHHIDELFEIAVGKGIPVICYGLRTDFQMNGFEGSERLLLLAHSIEEMKTICRCGRKAILNGRMINGKFTFEGEQVAIDLVDNVEYQSLCGQCYFKYKYGKDSDNLEHHHHHH,soluble
12,MLRWITAGESHGRALVAVVEGMVAGVHVTSADIADQLARRRLGYGRGARMTFERDAVTVLSGIRHGSTLGGPIAIEIGNTEWPKWETVMAADPVDPAELADVARNAPLTRPRPGHADYAGMLKYGFDDARPVLERASARETAARVAAGTVARAFLRQALGVEVLSHVISIGASAPYEGPPPRAEDLPAIDASPVRAYDKAAEADMIAQIEAAKKDGDTLGGVVEAVALGLPVGLGSFTSGDHRLDSQLAAAVMGIQAIKGVEIGDGFQTARRRGSRAHDEMYPGPDGVVRSTNRAGGLEGGMTNGQPLRVRAAMKPISTVPRALATVDLATGDEAVAIHQRSDVCAVPAAGVVVETMVALVLARAALEKFGGDSLAETQRNIAAYQRSVADREAPAARVSGHHHHHH,soluble
13,MTAFRQRPLRLGHRGAPLKAKENTLESFRLALEAGLDGVELDVWPTRDGVFAVRHDPDTPLGPVFQVDYADLKAQEPDLPRLEEVLALKEAFPQAVFNVELKSFPGLGEEAARRLAALLRGREGVWVSSFDPLALLALRKAAPGLPLGFLMAEDHSALLPCLGVEAVHPHHALVTEEAVAGWRKRGLFVVAWTVNEEGEARRLLALGLDGLIGDRPEVLLPLGG,soluble
14,MNIMSESIPQFYKRIQRCDPQLGTTYSKENPYFNVLSRQCNFGTVQFSYRDFYKVTLIIGVGKLYYADKWILVNRPAMLFSNPLVPYAWESISEEQKGMFCIFNEQFVQSEEKNGSLANTPLFKVTGDKVFFLNDAQVAKVMDIYTQMQEENQSDYANKHDVLRCYLHLLIHTALKMQESNKYESHPNASQRITELFIELLDRQFPVDYPHSVLSLRTPADYANRLSIHVNHLNKVVKDTTGKTTSTMIAERIIKECTQYLLHSNFSISEIAYSLGFENMAYFSKFYRKHTGKSPSEIREQQLFDLCK,not soluble
15,MTEQLFDSLAKQNGFRVLSGGKYGGNNGFDHVWQAADGSVVLIVESKQIRNGTVQLNPNGAGGYTQMSREWIKQVVKSLPDGSPAKAVVLKANQNGKLKTAIAGVDRQTGKAVILSVKVPSKTNIRR,not soluble
16,PLKEQKVINTANITTNSKLDLAEYENGLMNIAKEQFDTENHVLQLNQYIPEKLVDELVAKVKAPVLTNIIEQDYFGKQNSNELSLSGVVIGLAMSSSVSNEEALSKGTEVAGQLIEAIHKNGKYNKSPITFAIFKQESTSSLKNGTYIASATVQKNDTNLGNWNAIEEKAYSYPSDEFTQAHGEDNEKINKFAEAMKGFSPGDFIPVNAKVSYKKNQMDTLNMDIVIKYNGKTELMALTQLAAQSMLDQLPKDAKVQLQIKSENKIEAIVIKEKNSDKPFVSFL,soluble
17,MAHHHHHHMQKTILQILREQDDASSSCVLALLKGNASFQCLSKSEGEDILKRDNEDAEKLSDGIRIAIRKGIVSGKPDVSPVNKLNVVGLSAQEVTDKIVAALPSKNGNVIILQGLSGTGKGTTVSKLKDALPKCVTWSNGNIFRSYTYLCNEVLAAQGKEITEESLTDELLSSVEKRVTFVKCEDGMFHTMLDGTRRVADVQNTLLKTPLISSKVPTVAQQTQGEVIRFGAGAVKQLSADGYNVILEGRSQTLDYISSPLRFELIIPDVEVLGQRRAAQRVMAKALEMLDDSASDEEVSKVLVKAVETLQ,soluble
18,MNNKLVRSLKYNDVYGELYSYENSSALTVIFPGINYGHEKPLLYYARKAAAQNNIDILCINYKNKISWEDIGKQSIEDVAIEIKGIIKNVIEKKYDNIYFLGKSVGTEIAGCTSSKLNIDNIKFLYLTPIEETLKYIVDRKCIVVSGTKDEFFKSECINKIRENKNVKLMLFEGANHSLEIKDDIIRSLRILDNVAQLYLDFFK,not soluble
19,AIARPSSLRQYLDSVPLPPCQEQQPKASAELDHKACYLCHSLLMLAGVVVSCQDITPDQWGELQLLCMQLDRHISTQIRESPQAMHRTMLKDLATQTYIRWQELLTHCQPQAQYFSPWKDI,soluble
20,SPEIMKNLSNNFGKAMDQCKDELSLPDSVVADLYNFWKDDYVMTDRLAGCAINCLATKLDVVDPDGNLHHGNAKDFAMKHGADETMAQQLVDIIHGCEKSAPPNDDKCMKTIDVAMCFKKEIHKLNWVPNMDLVIGEVLAEV,soluble
